Assay results: IntAct's records for PubMed 31515488

B1: Tektin-4 (Homo sapiens), Q8WW24 (parent)
chain: MAQTVPPCELPCKEYDVARNTGAYTSSGLATASFRTSKYLLEEWFQNCYARYHQAFADRDQSERQRHESQQLATETQALAQRTQQDSTRTVGERLQDTHSWKSELQREMEALAAETNLLLAQKQRLERALDATEVPFSITTDNLQCRERREHPNLVRDHVETELLKEAELIRNIQELLKRTIMQAVSQIRLNREHKETCEMDWSDKMEAYNIDETCGRHHSQSTEVQAHPYSTTFQESASTPETRAKFTQDNLCRAQRERLASANLRVLVDCILRDTSEDLRLQCDAVNLAFGRRCEELEDARYKLHHHLHKTLREITDQEHNVAALKQAIKDKEAPLHVAQTRLYLRSHRPNMELCRDAAQFRLLSEVEELNMSLTALREKLLEAEQSLRNLEDIHMSLEKDIAAMTNSLFIDRQKCMAHRTRYPTILQLAGYQ
B2: Serine/threonine-protein kinase PAK 6 (Homo sapiens), Q9NQU5 (parent)
chain: MFRKKKKKRPEISAPQNFQHRVHTSFDPKEGKFVGLPPQWQNILDTLRRPKPVVDPSRITRVQLQPMKTVVRGSAMPVDGYISGLLNDIQKLSVISSNTLRGRSPTSRRRAQSLGLLGDEHWATDPDMYLQSPQSERTDPHGLYLSCNGGTPAGHKQMPWPEPQSPRVLPNGLAAKAQSLGPAEFQGASQRCLQLGACLQSSPPGASPPTGTNRHGMKAAKHGSEEARPQSCLVGSATGRPGGEGSPSPKTRESSLKRRLFRSMFLSTAATAPPSSSKPGPPPQSKPNSSFRPPQKDNPPSLVAKAQSLPSDQPVGTFSPLTTSDTSSPQKSLRTAPATGQLPGRSSPAGSPRTWHAQISTSNLYLPQDPTVAKGALAGEDTGVVTHEQFKAALRMVVDQGDPRLLLDSYVKIGEGSTGIVCLAREKHSGRQVAVKMMDLRKQQRRELLFNEVVIMRDYQHFNVVEMYKSYLVGEELWVLMEFLQGGALTDIVSQVRLNEEQIATVCEAVLQALAYLHAQGVIHRDIKSDSILLTLDGRVKLSDFGFCAQISKDVPKRKSLVGTPYWMAPEVISRSLYATEVDIWSLGIMVIEMVDGEPPYFSDSPVQAMKRLRDSPPPKLKNSHKVSPVLRDFLERMLVRDPQERATAQELLDHPFLLQTGLPECLVPLIQLYRKQTSTC
B3: Melanoma-associated antigen 4 (Homo sapiens), P43358 (parent)
chain: MSSEQKSQHCKPEEGVEAQEEALGLVGAQAPTTEEQEAAVSSSSPLVPGTLEEVPAAESAGPPQSPQGASALPTTISFTCWRQPNEGSSSQEEEGPSTSPDAESLFREALSNKVDELAHFLLRKYRAKELVTKAEMLERVIKNYKRCFPVIFGKASESLKMIFGIDVKEVDPASNTYTLVTCLGLSYDGLLGNNQIFPKTGLLIIVLGTIAMEGDSASEEEIWEELGVMGVYDGREHTVYGEPRKLLTQDWVQENYLEYRQVPGSNPARYEFLWGPRALAETSYVKVLEHVVRVNARVRIAYPSLREAALLEEEEGV
partner: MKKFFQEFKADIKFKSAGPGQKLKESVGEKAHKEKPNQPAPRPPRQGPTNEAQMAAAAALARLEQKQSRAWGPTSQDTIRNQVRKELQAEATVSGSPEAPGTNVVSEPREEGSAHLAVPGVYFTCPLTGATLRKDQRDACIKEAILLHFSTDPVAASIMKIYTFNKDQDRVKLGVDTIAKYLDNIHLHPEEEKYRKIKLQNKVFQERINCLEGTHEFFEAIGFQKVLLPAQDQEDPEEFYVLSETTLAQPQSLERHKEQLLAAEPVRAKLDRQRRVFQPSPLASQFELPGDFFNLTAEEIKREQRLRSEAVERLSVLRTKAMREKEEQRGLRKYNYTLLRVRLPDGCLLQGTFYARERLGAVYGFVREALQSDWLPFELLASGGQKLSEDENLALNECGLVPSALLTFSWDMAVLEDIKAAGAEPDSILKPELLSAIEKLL
B4: Cyclin-dependent kinase 4 inhibitor C (Homo sapiens), P42773 (parent)
chain: MAEPWGNELASAAARGDLEQLTSLLQNNVNVNAQNGFGRTALQVMKLGNPEIARRLLLRGANPDLKDRTGFAVIHDAARAGFLDTLQTLLEFQADVNIEDNEGNLPLHLAAKEGHLRVVEFLVKHTASNVGHRNHKGDTACDLARLYGRNEVVSLMQANGAGGATNLQ

Variants of: B1
Conditions: with trip6_human TRIP6, Q15654
Sequence of trip6_human TRIP6, Q15654 (Q15654 whole entry): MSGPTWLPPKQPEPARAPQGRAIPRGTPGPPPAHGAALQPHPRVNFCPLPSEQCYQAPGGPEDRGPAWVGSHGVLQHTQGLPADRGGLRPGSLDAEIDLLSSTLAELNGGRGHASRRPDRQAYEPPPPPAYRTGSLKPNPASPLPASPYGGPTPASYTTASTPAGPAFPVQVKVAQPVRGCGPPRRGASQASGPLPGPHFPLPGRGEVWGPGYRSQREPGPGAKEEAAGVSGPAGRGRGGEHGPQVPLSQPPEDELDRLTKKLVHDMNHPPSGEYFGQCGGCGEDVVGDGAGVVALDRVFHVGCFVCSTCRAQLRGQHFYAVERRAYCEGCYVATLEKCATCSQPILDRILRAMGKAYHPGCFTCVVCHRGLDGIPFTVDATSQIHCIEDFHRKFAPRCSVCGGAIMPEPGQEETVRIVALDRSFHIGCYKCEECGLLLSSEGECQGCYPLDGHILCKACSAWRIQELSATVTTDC

Variant | effect of a mutation on the interaction
R82C | with no effect
M374V | with no effect
R255C | with no effect

Variants of: B1
Conditions: with maga4_human MAGEA4, P43358

Variant | effect of a mutation on the interaction
R82C | with no effect
M374V | with no effect
R255C | with no effect

Variants of: B1
Conditions: with atg5_human ATG5, Q9H1Y0
Sequence of atg5_human ATG5, Q9H1Y0 (Q9H1Y0 whole entry): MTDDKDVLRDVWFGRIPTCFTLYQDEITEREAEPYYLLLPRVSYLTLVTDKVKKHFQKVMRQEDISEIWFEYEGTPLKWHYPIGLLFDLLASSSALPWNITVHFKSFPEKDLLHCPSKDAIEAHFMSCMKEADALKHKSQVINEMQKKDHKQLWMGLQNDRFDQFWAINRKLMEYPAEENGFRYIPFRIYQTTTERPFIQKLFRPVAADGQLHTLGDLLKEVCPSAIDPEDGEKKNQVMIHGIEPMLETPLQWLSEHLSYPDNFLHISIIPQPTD

Variant | effect of a mutation on the interaction
R82C | with no effect
M374V | with no effect
R255C | with no effect
A80V | with no effect
D403N | with no effect
M374T | with no effect
I404T | disrupting interaction strength

Variants of: B2
Conditions: with rhoj_human RHOJ

Variant | effect of a mutation on the interaction
L514R | disrupting interaction strength
V54M | with no effect
R103C | with no effect
H215R | with no effect

Variants of: B3
Conditions: with ubxn6_human UBXN6, Q9BZV1

Variant | effect of a mutation on the interaction
S41F | with no effect

Variants of: B4
Conditions: with cdk6_human CDK6, Q00534
Sequence of cdk6_human CDK6, Q00534 (Q00534 whole entry): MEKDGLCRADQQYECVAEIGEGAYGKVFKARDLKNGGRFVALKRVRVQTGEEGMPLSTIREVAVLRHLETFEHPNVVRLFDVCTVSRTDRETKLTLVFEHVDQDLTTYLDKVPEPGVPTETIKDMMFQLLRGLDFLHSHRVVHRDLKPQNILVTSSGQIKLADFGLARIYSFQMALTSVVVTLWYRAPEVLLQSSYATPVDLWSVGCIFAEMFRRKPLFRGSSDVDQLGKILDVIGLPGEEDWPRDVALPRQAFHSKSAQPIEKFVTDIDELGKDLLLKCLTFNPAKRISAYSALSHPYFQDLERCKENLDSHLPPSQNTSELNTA

Variant | effect of a mutation on the interaction
V31L | with no effect

Variants of: B4
Conditions: with htf4_human TCF12, Q99081
Sequence of htf4_human TCF12, Q99081 (Q99081 whole entry): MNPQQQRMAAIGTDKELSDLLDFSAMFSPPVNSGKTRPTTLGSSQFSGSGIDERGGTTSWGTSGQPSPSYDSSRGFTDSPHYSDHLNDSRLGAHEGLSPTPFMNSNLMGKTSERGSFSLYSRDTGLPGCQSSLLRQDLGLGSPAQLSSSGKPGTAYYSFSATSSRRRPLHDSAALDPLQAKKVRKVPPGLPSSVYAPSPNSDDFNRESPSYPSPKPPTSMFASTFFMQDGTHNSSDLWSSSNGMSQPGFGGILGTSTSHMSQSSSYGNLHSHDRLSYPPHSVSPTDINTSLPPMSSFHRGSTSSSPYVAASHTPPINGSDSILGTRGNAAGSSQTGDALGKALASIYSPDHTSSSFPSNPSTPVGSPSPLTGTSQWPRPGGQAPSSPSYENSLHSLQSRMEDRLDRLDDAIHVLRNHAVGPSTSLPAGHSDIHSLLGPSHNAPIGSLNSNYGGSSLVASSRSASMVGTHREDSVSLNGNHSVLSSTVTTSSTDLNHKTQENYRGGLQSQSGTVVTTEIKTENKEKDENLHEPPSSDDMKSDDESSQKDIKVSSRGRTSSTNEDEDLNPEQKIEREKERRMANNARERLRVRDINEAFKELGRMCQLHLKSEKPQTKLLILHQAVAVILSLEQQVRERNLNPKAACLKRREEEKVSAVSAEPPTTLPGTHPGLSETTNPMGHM

Variant | effect of a mutation on the interaction
V31L | disrupting interaction strength

Variants of: B4
Conditions: with cdk4_human CDK4, P11802

Variant | effect of a mutation on the interaction
V31L | with no effect

Variants of: B4
Conditions: with itf2_human TCF4, P15884
Sequence of itf2_human TCF4, P15884 (P15884 whole entry): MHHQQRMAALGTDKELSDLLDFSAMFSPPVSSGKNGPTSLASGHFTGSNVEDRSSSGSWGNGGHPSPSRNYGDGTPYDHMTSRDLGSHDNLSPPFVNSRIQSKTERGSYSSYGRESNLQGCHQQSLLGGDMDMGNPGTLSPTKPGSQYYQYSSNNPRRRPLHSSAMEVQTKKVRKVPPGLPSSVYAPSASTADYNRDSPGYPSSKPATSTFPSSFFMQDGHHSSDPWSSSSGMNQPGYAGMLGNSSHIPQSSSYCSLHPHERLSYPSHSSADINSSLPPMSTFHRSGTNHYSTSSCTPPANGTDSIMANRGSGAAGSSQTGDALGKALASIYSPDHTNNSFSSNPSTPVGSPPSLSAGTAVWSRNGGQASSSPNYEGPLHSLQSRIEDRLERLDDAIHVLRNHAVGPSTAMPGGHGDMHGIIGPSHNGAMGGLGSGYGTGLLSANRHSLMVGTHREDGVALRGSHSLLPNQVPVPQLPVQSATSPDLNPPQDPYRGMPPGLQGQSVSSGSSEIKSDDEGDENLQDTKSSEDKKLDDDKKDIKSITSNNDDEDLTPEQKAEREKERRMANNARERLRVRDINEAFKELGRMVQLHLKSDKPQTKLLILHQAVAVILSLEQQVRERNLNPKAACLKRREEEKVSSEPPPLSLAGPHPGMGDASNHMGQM

Variant | effect of a mutation on the interaction
V31L | disrupting interaction strength

Variants of: B4
Conditions: with nagk_human NAGK

Variant | effect of a mutation on the interaction
V31L | disrupting interaction strength

Variants of: B4
Conditions: with sahh2_human AHCYL1, O43865
Sequence of sahh2_human AHCYL1, O43865 (O43865 whole entry): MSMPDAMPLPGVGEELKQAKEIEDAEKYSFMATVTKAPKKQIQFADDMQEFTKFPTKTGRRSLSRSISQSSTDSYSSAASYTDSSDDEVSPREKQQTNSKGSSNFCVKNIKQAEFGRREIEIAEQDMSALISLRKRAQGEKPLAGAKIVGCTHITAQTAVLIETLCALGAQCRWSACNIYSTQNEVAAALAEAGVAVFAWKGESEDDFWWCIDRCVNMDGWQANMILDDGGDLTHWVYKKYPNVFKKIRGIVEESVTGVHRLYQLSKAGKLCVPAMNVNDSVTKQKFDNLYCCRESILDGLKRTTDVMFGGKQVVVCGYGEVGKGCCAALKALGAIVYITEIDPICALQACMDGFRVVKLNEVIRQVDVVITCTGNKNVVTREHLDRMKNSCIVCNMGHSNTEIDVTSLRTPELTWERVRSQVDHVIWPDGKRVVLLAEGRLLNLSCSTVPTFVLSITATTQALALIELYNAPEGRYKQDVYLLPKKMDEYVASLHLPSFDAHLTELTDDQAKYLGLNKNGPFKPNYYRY

Variant | effect of a mutation on the interaction
V31L | disrupting interaction strength
